This is an account of results in patent US7141393 (KABUSHIKI KAISHA HAYASHIBARA SEIBUTSU KAGAKU KENKYUJO, dated 2006).

The target of the test is T1, IL-18R protein on the surface of L428 cell (human, UniProt Q13478 19-541).
T1 construct: whole, on cells; Endogenous receptor on cell lines; also called L428 cells; IL-18R protein on the surface of KG-1 cell
T1 sequence (looked up): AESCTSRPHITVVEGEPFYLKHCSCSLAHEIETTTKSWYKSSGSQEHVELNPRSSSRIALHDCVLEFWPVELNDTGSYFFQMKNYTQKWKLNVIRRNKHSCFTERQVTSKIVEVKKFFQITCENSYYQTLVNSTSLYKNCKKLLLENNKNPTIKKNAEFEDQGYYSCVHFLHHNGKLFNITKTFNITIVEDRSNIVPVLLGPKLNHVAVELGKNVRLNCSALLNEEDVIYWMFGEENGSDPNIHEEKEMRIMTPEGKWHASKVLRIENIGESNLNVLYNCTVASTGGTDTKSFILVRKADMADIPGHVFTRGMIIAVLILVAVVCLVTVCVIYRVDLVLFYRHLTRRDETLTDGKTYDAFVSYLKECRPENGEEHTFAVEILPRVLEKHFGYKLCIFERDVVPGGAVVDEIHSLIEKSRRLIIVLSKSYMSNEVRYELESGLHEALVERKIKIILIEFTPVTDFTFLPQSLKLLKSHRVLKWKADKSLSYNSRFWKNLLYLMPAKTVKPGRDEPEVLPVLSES
Nature of the test: inhibition of 125I-labelled IL-18 binding to L428 cells (FIG. 1 legend). As for the experimental part:
Subsequently, each cell suspension was added with 200 µl mixture solution (volume ratio 1:1) of dibutylphthalate and diocthylphtalate and centrifuged at 10,000 rpm and 20° C. for 5 minutes, followed by collecting the resultant precipitates containing the cells which were then determined for radioactivity using "MODEL ARC-300", a gamma-ray counter commercialized by Aloka Co., Ltd, Tokyo, Japan.
The levels of radioactivity found in "non-specific binding section" and "whole binding section" were put in Formula 1 together with that found in the sample testing section to calculate percent inhibition.

B1: monoclonal antibody MAb #117-10C (antibody, V domains shown)
VH: EVQLQQSGAELVKPGASVKLSCTTSGFNIKDIYIYWVKQRPEQGLEWVGRIDPANGDTKYGPNFQDKATITADTSSNTAYLQLRSLTSEDTAVYYCARRGNYGAGFGYWGQGTLVTVSA
VL: DIQMTQSPASLSASVGETVTITCRASGNIHNYLAWYQQRQGKSPQILVYNAKTLADGVSSRFSGSGSGTQYSLNINSLQPEDFGTYFCQHFWSTPYTFGGGTKLEIKR
notes: Mouse hybridoma antibody purified from ascites
As for B1, the binding result was “binds”.
